Data taken from US20230189818A1, “RNA-BASED CONTROL OF BOTRYTIS” (priority 2021, published 2023).

What was measured:
[1] = test system: B. cinerea; assay: Open-air field trial on strawberry (Example 4.4, AUDPC of % disease severity); type: in vivo, Botrytis cinerea; details: FIG. 10
Description: RNAi compositions, each containing a dsRNA comprising a trigger sequence (GS349) described herein were evaluated for ability to control botrytis on strawberry in open-air field trials. All test samples were formulated as described in Example 4.3 and were tank mixed with standard adjuvant, Activator 90 0.25% v/v. Compositions were tested at concentrations of 10, 20, 30, and 40 g ai/ha. A biological standard program of Regalia 470 g ai/ha and Stylet Oil 6800 g ai/ha was used as a positive control. A chemical standard program of Captan 2240 g ai/ha and Switch 525 g ai/ha was used for a second positive control. An untreated check group was used as a negative control.
Compositions were applied to strawberry plants using a small plot sprayer delivering 50 gallons of water per acre. Five applications were made at weekly intervals. Disease state was evaluated beginning 6 days after the first application and ending 12 days after the fifth and final application. Percent Disease Severity was assessed and AUDPC was calculated in the same manner as noted in Example 4.1.

[2] = test system: Botrytis; assay: Open-air field trials on grape (Example 4.2, AUDPC of % disease severity); type: in vivo, Botrytis cinerea; details: for Disease compared with the biological standard program of Serenade and JMS Stylet Oil (AUDPC) / Disease caused by Botrytis compared to untreated check (AUDPC): both trials; for Disease caused by Botrytis compared to untreated check (AUDPC): FIGS. 7 and 8; for Disease compared with the chemical program of Miravis Prime and Switch (AUDPC): second trial
Description: RNAi compositions, each containing a dsRNA comprising a trigger sequence (GS730) described herein, were evaluated for ability to control Botrytis on grape in open-air field trials. Non-formulated and formulated compositions were tested. Non-formulated compositions were tank mixed with water and Silwet L-77 0.1% v/v. Formulated samples were formulated with RO water, propylene glycol, a linear alcohol ethoxylate, a lignosulfanate, sodium citrate dihydate, a polyacrylic acid polymer, two biocide compositions, anhydrous citric acid, and an antifoam, all of which are readily commercially available. Non-formulated and formulated GS 730 were each tested at concentrations of 50 g ai/ha and 100 g ai/ha. A standard biological program of Serenade 9.4 I/ha alternating with JMS Sylet Oil 1% v/v was used as a positive control. Chemical standards, Miravis Prime 392 g ai/ha ai and Switch 610 g ai/ha were applied to a second positive control group in alternating applications. An untreated group was used as a negative control
Positive controls were applied to grape plants at bloom, bunch closure, veraison, and 7-10 days before harvest. Test applications were made on the same timing as the positive controls with additional applications seven days after bloom, bunch closure, veraison, and 7-10 days before harvest. Disease state was evaluated over the course of three to four weeks, starting two days after the last application (Slide 3) or 18 days […] the last application. Percent Disease Severity was assessed and AUDPC was calculated in the same manner as noted in Example 4.1.

[3] = non-formulated, 50 and 100 g ai/ha

| Molecule | Disease compared with the chemical standard program (AUDPC) ([1]; 10, 20, 30 and 40 g ai/ha, Captan 2240 g ai/ha and Switch 525 g ai/ha) | Disease compared with the biological standard program (AUDPC) ([1]; 10, 20, 30 and 40 g ai/ha, Regalia 470 g ai/ha and Stylet Oil 6800 g ai/ha) | Disease caused by B. cinerea vs untreated check (AUDPC) ([1]; formulated, Activator 90 0.25% v/v, 10, 20, 30 and 40 g ai/ha, five weekly applications) | Disease compared with the biological standard program of Serenade and JMS Stylet Oil (AUDPC) ([2]; formulated, 100 g ai/ha) | Disease caused by Botrytis compared to untreated check (AUDPC) ([2]; formulated, 100 g ai/ha) | Disease compared with the chemical program of Miravis Prime and Switch (AUDPC) ([2]; formulated, 100 g ai/ha) | Disease compared with the biological standard program of Serenade and JMS Stylet Oil (AUDPC) [2, 3] | Disease caused by Botrytis compared to untreated check (AUDPC) [2, 3] | Disease compared with the chemical program of Miravis Prime and Switch (AUDPC) [2, 3] |
| --- | --- | --- | --- | --- | --- | --- | --- | --- | --- |
| GS349: dsRNA trigger targeting B. cinerea CDC42 (XM_001545642.2); trigger SEQ ID NO 14, RNA 26, reverse complement 38 (nucleic acid, listed as Botrytis cinerea) sense: GUUGUCUUGUCUCGCUCAAGCUUGUCCUGUCUGGUCACUUUUCUUUCUGCCUGAUAAUCCAGACCUCGAAAAUAACCAAAAGAUUGGAAAUCGUUUGCUCAUCUUGCAUGCAUUAUUACUUUCCUGGAUCAAUCUCAUUCAACUCGUUCUCGUGCAUUUCAUUCAACCUCAACCCCUACUUUCAGUCAAUUCAAUUUAAUUCAAUCAUUCAAAUCUUUCAUUUCGCACACUUCACAUUCAACCAUCCUCUCUCAAUCAAAUAUCACCACCUCUCUUAUCGAACGUCAUUUUGCAUACAAUCAAUUCCUACAGACCGAGCGCAACUCGAUACAACCAUCGAAUAACUUCUCACACUUGCUUGUUGAAUUGAUUACUGAAGAAAGUGGAUUUCAAAGACCGAUUUUCCCCCUAGAUAUUCAAGAACGGCUUAUUCUUGUCUCGAGACAAAAC antisense: GUUUUGUCUCGAGACAAGAAUAAGCCGUUCUUGAAUAUCUAGGGGGAAAAUCGGUCUUUGAAAUCCACUUUCUUCAGUAAUCAAUUCAACAAGCAAGUGUGAGAAGUUAUUCGAUGGUUGUAUCGAGUUGCGCUCGGUCUGUAGGAAUUGAUUGUAUGCAAAAUGACGUUCGAUAAGAGAGGUGGUGAUAUUUGAUUGAGAGAGGAUGGUUGAAUGUGAAGUGUGCGAAAUGAAAGAUUUGAAUGAUUGAAUUAAAUUGAAUUGACUGAAAGUAGGGGUUGAGGUUGAAUGAAAUGCACGAGAACGAGUUGAAUGAGAUUGAUCCAGGAAAGUAAUAAUGCAUGCAAGAUGAGCAAACGAUUUCCAAUCUUUUGGUUAUUUUCGAGGUCUGGAUUAUCAGGCAGAAAGAAAAGUGACCAGACAGGACAAGCUUGAGCGAGACAAGACAAC | no significant difference | no significant difference | significantly reduced disease | – | – | – | – | – | – |
| GS730: dsRNA trigger targeting B. cinerea Bcsec15 (XM_024692064.1); trigger SEQ ID NO 19, RNA 31, reverse complement 43 (nucleic acid, listed as Botrytis cinerea) sense: UCAACGCAGUCUCCAAAGCUUUGGAUGAAUUCGAUAACCCGGAUGUUAUUCUGCAAACCAAGAAUGUGAUAGCAUUGUUCAUCCAAACAAUGGAGGGUUGGGGAUAUUCAGUUGCCAUAUUAGAUGCUUAUGUGCUUAAGCUUUUCUAUAGAUAUGCUGAUUUGUUAAAACGGAAAUUCAGCACAGAUUUUCAACAGAUUGUGUCUACCGAUGAAUACAUGCCUAUGCCUGUCAAUAGCGAAGAAGACUUUGAUAAAAUCAUUCAAGUCAGUUGGUAUGUUCCGGACAGACCGAAAGAAGAAUACACAUUCCCCGGUGUAUUACCAUUCUCCCAGAUGUACCCAAUGUGCUGUAUAGAUAUCAGAAAUUUCCUGAAUCGAUUCUACUUCAUAAUGGAUGAUCAUUUUCAACAGCCAAACAUUAUUGAUGAGACACUUAAGAAGUCGAUAGAUGAGCUUCUGUCUGAGGAUAUUUGUGA antisense: UCACAAAUAUCCUCAGACAGAAGCUCAUCUAUCGACUUCUUAAGUGUCUCAUCAAUAAUGUUUGGCUGUUGAAAAUGAUCAUCCAUUAUGAAGUAGAAUCGAUUCAGGAAAUUUCUGAUAUCUAUACAGCACAUUGGGUACAUCUGGGAGAAUGGUAAUACACCGGGGAAUGUGUAUUCUUCUUUCGGUCUGUCCGGAACAUACCAACUGACUUGAAUGAUUUUAUCAAAGUCUUCUUCGCUAUUGACAGGCAUAGGCAUGUAUUCAUCGGUAGACACAAUCUGUUGAAAAUCUGUGCUGAAUUUCCGUUUUAACAAAUCAGCAUAUCUAUAGAAAAGCUUAAGCACAUAAGCAUCUAAUAUGGCAACUGAAUAUCCCCAACCCUCCAUUGUUUGGAUGAACAAUGCUAUCACAUUCUUGGUUUGCAGAAUAACAUCCGGGUUAUCGAAUUCAUCCAAAGCUUUGGAGACUGCGUUGA | – | – | – | not statistically different | significantly reduced disease | comparable | not statistically different | significantly reduced disease | comparable |
